In paper PMC3954636:

Target: hemagglutinin (HA) of human H7N9 influenza A virus A/Shanghai/2/2013 (influenza A virus A/Shanghai/2/2013 (H7N9))
Experiment: crystal structure

With “hemagglutinin (HA) of human H7N9 influenza A virus A/Shanghai/2/2013 (natural protein)” the stoichiometry N was 3.
